Target: CBF1 (RBPJK), purified from HeLa (Homo sapiens) (UniProt Q06330)
Test: competition

Chain of CBF1 (RBPJK), purified from HeLa (Homo sapiens) (Q06330 other isoform, or with tags, fused parts or gaps): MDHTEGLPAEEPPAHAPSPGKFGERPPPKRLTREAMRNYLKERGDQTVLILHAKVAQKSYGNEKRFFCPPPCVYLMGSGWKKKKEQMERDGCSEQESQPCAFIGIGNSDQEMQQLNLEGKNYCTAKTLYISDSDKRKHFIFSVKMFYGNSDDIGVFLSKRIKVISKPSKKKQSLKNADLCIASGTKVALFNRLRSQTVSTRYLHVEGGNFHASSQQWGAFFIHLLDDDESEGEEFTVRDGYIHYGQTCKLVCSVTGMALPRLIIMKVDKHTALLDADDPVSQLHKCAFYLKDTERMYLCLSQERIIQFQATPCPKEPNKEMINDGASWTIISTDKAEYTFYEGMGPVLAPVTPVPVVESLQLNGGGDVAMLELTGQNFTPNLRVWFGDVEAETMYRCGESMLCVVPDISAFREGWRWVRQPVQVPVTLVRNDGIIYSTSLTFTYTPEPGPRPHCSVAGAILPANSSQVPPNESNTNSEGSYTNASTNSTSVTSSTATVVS

**Q.** With “AAGCATCGTGGATATTCCCGGCACAGCT (double strand) [ELAMp kB-1]” as the sequence, how does the binding signal (% reduction at 10 pmol competitor) (0% at 0.1, 8% at 1.0 pmol) read?
**A.** 44

**Q.** With “CAAGAGACAGAGTTTCTAAGCTTATTGTAATTTTAAGCATCG (double strand) [Unrelated]” as the sequence, how does the binding signal (% reduction at 10 pmol competitor) (0% at all amounts) read?
**A.** 0

**Q.** With “GATGCCATTGGGGATTTCCTCTTTACTG (double strand) [ELAM kB-3]” as the sequence, how does the binding signal (% reduction at 10 pmol competitor) (0% at 0.1 and 1.0 pmol) read?
**A.** 14

**Q.** With “GGAAACACGCCGTGGCTAAAAATTTGGG (double strand) [Cp-Mut]” as the sequence, how does the binding signal (% reduction at 10 pmol competitor) (0% at 0.1 and 1.0 pmol, approx 250-fold weaker than Cp) read?
**A.** 19

**Q.** How did the binding signal (% reduction at 10 pmol competitor) (EMSA competition against Cp probe, 51% at 0.1, 90% at 1.0 pmol) turn out when “GGAAACACGCCGTGGGAAAAAATTTGGC (double strand) [Cp (EBV C-promoter EBNA2 responsive element)]” was run?
**A.** 98

**Q.** For “GGACTACCACTGTGCCTTCCTCTGGAGG (double strand) [Heptamer-BamHI]”, which binding signal (% reduction at 10 pmol competitor) (0% at 0.1 and 1.0 pmol, additional 40-fold reduction versus Heptamer+BamHI) is on record?
**A.** 8

**Q.** For “GGACTACCACTGTGGGATCCTCTGGAGG (double strand) [Heptamer+BamHI]”, which binding signal (% reduction at 10 pmol competitor) (0% at 0.1, 31% at 1.0 pmol, approx 16-fold weaker than Cp) is on record?
**A.** 75

**Q.** For “TATATGCCCGGGAAAGTTTTTGTATTCC (double strand) [ELAMp kB-2]”, which binding signal (% reduction at 10 pmol competitor) (2% at 0.1, 27% at 1.0 pmol) is on record?
**A.** 51

**Q.** With “TCCTTCAGCCCTGTGGGAACTTGCTGCT (double strand) [CD23p]” as the sequence, how does the binding signal (% reduction at 10 pmol competitor) (22% at 0.1, 70% at 1.0 pmol, approx 2.5-fold weaker than Cp) read?
**A.** 91
